Experimental data published in the supplement of paper PMC9112550, “Optimization of the antimicrobial peptide Bac7 by deep mutational scanning” (BMC Biology, 2022).
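Also: peptides expressed intracellularly from a pBAD plasmid library in pooled LB shake-flask culture, induced with 0.3% L-arabinose, DNA abundance read by NGS, three biological replicates, DESeq2 with apeglm shrinkage.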

What follows are sequences tested on Escherichia coli TOP10 (assay: shrunken log2 fold change of peptide-encoding DNA abundance (4.5 h post-induction vs induction); higher = less antimicrobial activity (less host growth inhibition)). Conditions: time post-induction: 4.5 h; library: site-saturation at positions 5, 18, 19, 20.
RRIRHRPPRLPRPRPRPQWIPRP was tested, and the “shrunken log2 fold change” value was -0.031. In the case of RRIRRRPPRLPRPRPRPQHMPRP, the “shrunken log2 fold change” value is reported as -0.296. With RRIRPRPPRLPRPRPRPIFWPRP the “shrunken log2 fold change” value was 1.25. RRIRVRPPRLPRPRPRPWSDPRP was tested, and the “shrunken log2 fold change” value was -0.138. With RRIRGRPPRLPRPRPRPLTMPRP the “shrunken log2 fold change” value was 0.763. For RRIRFRPPRLPRPRPRPNQKPRP, the “shrunken log2 fold change” value was -0.159. For RRIRARPPRLPRPRPRPGFFPRP, the “shrunken log2 fold change” value was 0.509. In the case of RRIRARPPRLPRPRPRPPWIPRP, the “shrunken log2 fold change” value is reported as 0.38. With RRIRWRPPRLPRPRPRPALFPRP the “shrunken log2 fold change” value was 0.496. RRIRSRPPRLPRPRPRPTCHPRP was tested, and the “shrunken log2 fold change” value was 0.024. RRIRFRPPRLPRPRPRPCLIPRP was tested, and the “shrunken log2 fold change” value was -0.448. With RRIRPRPPRLPRPRPRPYGRPRP the “shrunken log2 fold change” value was -0.213. In the case of RRIRQRPPRLPRPRPRPLGVPRP, the “shrunken log2 fold change” value is reported as 0.0233. In the case of RRIRKRPPRLPRPRPRPMCGPRP, the “shrunken log2 fold change” value is reported as 0.0595. In the case of RRIRNRPPRLPRPRPRPAPEPRP, the “shrunken log2 fold change” value is reported as 0.948. In the case of RRIRHRPPRLPRPRPRPTHIPRP, the “shrunken log2 fold change” value is reported as -0.468. For RRIRPRPPRLPRPRPRPHAWPRP, the “shrunken log2 fold change” value was 0.189. For RRIRSRPPRLPRPRPRPIVNPRP, the “shrunken log2 fold change” value was -0.259. In the case of RRIRLRPPRLPRPRPRPDHAPRP, the “shrunken log2 fold change” value is reported as 0.0162. For RRIRARPPRLPRPRPRPYYFPRP, the “shrunken log2 fold change” value was -0.701. With RRIRPRPPRLPRPRPRPRALPRP the “shrunken log2 fold change” value was 0.388. RRIRKRPPRLPRPRPRPYAEPRP was tested, and the “shrunken log2 fold change” value was -0.0528. RRIRYRPPRLPRPRPRPAFYPRP was tested, and the “shrunken log2 fold change” value was -0.513. For RRIRTRPPRLPRPRPRPWGYPRP, the “shrunken log2 fold change” value was -0.0354. In the case of RRIRLRPPRLPRPRPRPHLEPRP, the “shrunken log2 fold change” value is reported as 0.0765. RRIRYRPPRLPRPRPRPIQNPRP was tested, and the “shrunken log2 fold change” value was -0.219. RRIRWRPPRLPRPRPRPLIGPRP was tested, and the “shrunken log2 fold change” value was 0.0414. In the case of RRIRPRPPRLPRPRPRPWRDPRP, the “shrunken log2 fold change” value is reported as -0.00123. With RRIRKRPPRLPRPRPRPHYGPRP the “shrunken log2 fold change” value was -0.0816. RRIRKRPPRLPRPRPRPQPYPRP was tested, and the “shrunken log2 fold change” value was -0.157. For RRIRCRPPRLPRPRPRPPHCPRP, the “shrunken log2 fold change” value was 0.971. RRIRHRPPRLPRPRPRPDIGPRP was tested, and the “shrunken log2 fold change” value was 0.0697. In the case of RRIRWRPPRLPRPRPRPTFTPRP, the “shrunken log2 fold change” value is reported as 0.195. With RRIRHRPPRLPRPRPRPHIMPRP the “shrunken log2 fold change” value was -0.63. RRIRYRPPRLPRPRPRPCNMPRP was tested, and the “shrunken log2 fold change” value was -0.873. For RRIRSRPPRLPRPRPRPDLYPRP, the “shrunken log2 fold change” value was -0.171. In the case of RRIRSRPPRLPRPRPRPRCFPRP, the “shrunken log2 fold change” value is reported as 0.165. In the case of RRIRARPPRLPRPRPRPFDWPRP, the “shrunken log2 fold change” value is reported as 0.608. For RRIRARPPRLPRPRPRPADQPRP, the “shrunken log2 fold change” value was 0.755. RRIRHRPPRLPRPRPRPDGAPRP was tested, and the “shrunken log2 fold change” value was -0.0729. RRIRSRPPRLPRPRPRPMVRPRP was tested, and the “shrunken log2 fold change” value was 0.00927. For RRIRRRPPRLPRPRPRPYWFPRP, the “shrunken log2 fold change” value was -0.299. In the case of RRIRIRPPRLPRPRPRPYHQPRP, the “shrunken log2 fold change” value is reported as 0.0196. For RRIRTRPPRLPRPRPRPDQMPRP, the “shrunken log2 fold change” value was 0.0643. In the case of RRIRSRPPRLPRPRPRPNASPRP, the “shrunken log2 fold change” value is reported as 0.233. For RRIRNRPPRLPRPRPRPNFFPRP, the “shrunken log2 fold change” value was 0.0771. With RRIRYRPPRLPRPRPRPFYLPRP the “shrunken log2 fold change” value was -0.955. In the case of RRIRTRPPRLPRPRPRPLVVPRP, the “shrunken log2 fold change” value is reported as 0.193. In the case of RRIRARPPRLPRPRPRPEPDPRP, the “shrunken log2 fold change” value is reported as -0.0215. With RRIRGRPPRLPRPRPRPAKSPRP the “shrunken log2 fold change” value was 0.492. For RRIRPRPPRLPRPRPRPSDGPRP, the “shrunken log2 fold change” value was -0.26. In the case of RRIRTRPPRLPRPRPRPSINPRP, the “shrunken log2 fold change” value is reported as -0.63. In the case of RRIRVRPPRLPRPRPRPNSVPRP, the “shrunken log2 fold change” value is reported as -0.00107. RRIRLRPPRLPRPRPRPHMTPRP was tested, and the “shrunken log2 fold change” value was -0.466. In the case of RRIRWRPPRLPRPRPRPHQKPRP, the “shrunken log2 fold change” value is reported as 0.0146. With RRIRMRPPRLPRPRPRPCETPRP the “shrunken log2 fold change” value was -0.263. For RRIRSRPPRLPRPRPRPEMCPRP, the “shrunken log2 fold change” value was -0.104. For RRIRPRPPRLPRPRPRPMNEPRP, the “shrunken log2 fold change” value was -0.0529. With RRIRYRPPRLPRPRPRPELGPRP the “shrunken log2 fold change” value was -0.00146. In the case of RRIRMRPPRLPRPRPRPIAHPRP, the “shrunken log2 fold change” value is reported as -0.0202. In the case of RRIRWRPPRLPRPRPRPRMQPRP, the “shrunken log2 fold change” value is reported as 0.329. With RRIRPRPPRLPRPRPRPEDKPRP the “shrunken log2 fold change” value was 0.163. With RRIRMRPPRLPRPRPRPSGAPRP the “shrunken log2 fold change” value was 1.13. For RRIRIRPPRLPRPRPRPHDFPRP, the “shrunken log2 fold change” value was 0.0334. With RRIRWRPPRLPRPRPRPGGMPRP the “shrunken log2 fold change” value was 0.286. RRIRERPPRLPRPRPRPRGQPRP was tested, and the “shrunken log2 fold change” value was 0.837. RRIRCRPPRLPRPRPRPTQNPRP was tested, and the “shrunken log2 fold change” value was 0.803. In the case of RRIRDRPPRLPRPRPRPPTIPRP, the “shrunken log2 fold change” value is reported as 0.0394. In the case of RRIRSRPPRLPRPRPRPMLTPRP, the “shrunken log2 fold change” value is reported as -0.0725. RRIRARPPRLPRPRPRPFWVPRP was tested, and the “shrunken log2 fold change” value was -0.0841. In the case of RRIRTRPPRLPRPRPRPEQIPRP, the “shrunken log2 fold change” value is reported as 0.126. For RRIRWRPPRLPRPRPRPYYWPRP, the “shrunken log2 fold change” value was -1.31. In the case of RRIRHRPPRLPRPRPRPFIYPRP, the “shrunken log2 fold change” value is reported as -0.831. RRIRFRPPRLPRPRPRPDGIPRP was tested, and the “shrunken log2 fold change” value was -0.255. RRIRNRPPRLPRPRPRPMCRPRP was tested, and the “shrunken log2 fold change” value was -0.0579. With RRIRSRPPRLPRPRPRPYYWPRP the “shrunken log2 fold change” value was -0.00332. With RRIRDRPPRLPRPRPRPMSMPRP the “shrunken log2 fold change” value was 0.017. RRIRQRPPRLPRPRPRPYEEPRP was tested, and the “shrunken log2 fold change” value was -0.434. With RRIRVRPPRLPRPRPRPQSSPRP the “shrunken log2 fold change” value was -0.0172. For RRIRGRPPRLPRPRPRPLEEPRP, the “shrunken log2 fold change” value was 1.76. For RRIRCRPPRLPRPRPRPKHRPRP, the “shrunken log2 fold change” value was -0.212. With RRIRSRPPRLPRPRPRPISIPRP the “shrunken log2 fold change” value was 0.0336. In the case of RRIRLRPPRLPRPRPRPYGPPRP, the “shrunken log2 fold change” value is reported as -0.161. In the case of RRIRARPPRLPRPRPRPRTRPRP, the “shrunken log2 fold change” value is reported as 1.05. RRIRKRPPRLPRPRPRPWMTPRP was tested, and the “shrunken log2 fold change” value was -0.13. In the case of RRIRMRPPRLPRPRPRPHFQPRP, the “shrunken log2 fold change” value is reported as 0.22. In the case of RRIRGRPPRLPRPRPRPIFKPRP, the “shrunken log2 fold change” value is reported as 0.359. RRIRWRPPRLPRPRPRPLHPPRP was tested, and the “shrunken log2 fold change” value was 0.597. In the case of RRIRRRPPRLPRPRPRPCMDPRP, the “shrunken log2 fold change” value is reported as -0.229. With RRIRRRPPRLPRPRPRPFKLPRP the “shrunken log2 fold change” value was -0.0153. With RRIRVRPPRLPRPRPRPRQEPRP the “shrunken log2 fold change” value was -0.0401. In the case of RRIRPRPPRLPRPRPRPGNHPRP, the “shrunken log2 fold change” value is reported as -0.16. RRIRWRPPRLPRPRPRPYFFPRP was tested, and the “shrunken log2 fold change” value was -0.245. For RRIRNRPPRLPRPRPRPCVEPRP, the “shrunken log2 fold change” value was -0.209. For RRIRTRPPRLPRPRPRPYIRPRP, the “shrunken log2 fold change” value was -1.31. RRIRMRPPRLPRPRPRPCYTPRP was tested, and the “shrunken log2 fold change” value was -0.0524. In the case of RRIRRRPPRLPRPRPRPWDTPRP, the “shrunken log2 fold change” value is reported as -0.139. RRIRTRPPRLPRPRPRPNFLPRP was tested, and the “shrunken log2 fold change” value was 0.998. RRIRLRPPRLPRPRPRPKDRPRP was tested, and the “shrunken log2 fold change” value was 0.0663. With RRIRTRPPRLPRPRPRPKVRPRP the “shrunken log2 fold change” value was 0.0294. In the case of RRIRFRPPRLPRPRPRPWWHPRP, the “shrunken log2 fold change” value is reported as -0.334. With RRIRIRPPRLPRPRPRPMDQPRP the “shrunken log2 fold change” value was 0.0178. With RRIRCRPPRLPRPRPRPGKEPRP the “shrunken log2 fold change” value was -0.0657. With RRIRRRPPRLPRPRPRPSGHPRP the “shrunken log2 fold change” value was 0.161. RRIRFRPPRLPRPRPRPGQSPRP was tested, and the “shrunken log2 fold change” value was 0.0525. With RRIRDRPPRLPRPRPRPTDYPRP the “shrunken log2 fold change” value was -0.0921. With RRIRFRPPRLPRPRPRPILFPRP the “shrunken log2 fold change” value was -0.0517. For RRIRVRPPRLPRPRPRPWLEPRP, the “shrunken log2 fold change” value was 0.147. For RRIRFRPPRLPRPRPRPLRFPRP, the “shrunken log2 fold change” value was 0.186. In the case of RRIRTRPPRLPRPRPRPRIYPRP, the “shrunken log2 fold change” value is reported as -0.304. RRIRLRPPRLPRPRPRPIQNPRP was tested, and the “shrunken log2 fold change” value was -0.403. RRIRMRPPRLPRPRPRPTFDPRP was tested, and the “shrunken log2 fold change” value was 0.558. In the case of RRIRMRPPRLPRPRPRPIMDPRP, the “shrunken log2 fold change” value is reported as -0.133. With RRIRGRPPRLPRPRPRPLFSPRP the “shrunken log2 fold change” value was 0.113. In the case of RRIRNRPPRLPRPRPRPTLMPRP, the “shrunken log2 fold change” value is reported as 0.0843. In the case of RRIRQRPPRLPRPRPRPMPMPRP, the “shrunken log2 fold change” value is reported as -0.00149. For RRIRGRPPRLPRPRPRPFQKPRP, the “shrunken log2 fold change” value was -0.0668. For RRIRMRPPRLPRPRPRPMRVPRP, the “shrunken log2 fold change” value was 0.035. For RRIRCRPPRLPRPRPRPLWEPRP, the “shrunken log2 fold change” value was 0.00378. For RRIRGRPPRLPRPRPRPSSCPRP, the “shrunken log2 fold change” value was 0.316. RRIRRRPPRLPRPRPRPNASPRP was tested, and the “shrunken log2 fold change” value was -0.0114. RRIRKRPPRLPRPRPRPGHFPRP was tested, and the “shrunken log2 fold change” value was 0.0417. With RRIRFRPPRLPRPRPRPDETPRP the “shrunken log2 fold change” value was 0.145. For RRIRYRPPRLPRPRPRPFKVPRP, the “shrunken log2 fold change” value was -0.123. For RRIRSRPPRLPRPRPRPKEQPRP, the “shrunken log2 fold change” value was -0.0517.
